B1: YBL039C (protein, UniProt P28274 1-579, looked up)
CTP synthase 1: MKYVVVSGGVISGIGKGVLASSTGMLMKTLGLKVTSIKIDPYMNIDAGTMSPLEHGECFVLDDGGETDLDLGNYERYLGVTLTKDHNITTGKIYSHVIAKERKGDYLGKTVQIVPHLTNAIQDWIERVAKIPVDDTGMEPDVCIIELGGTVGDIESAPFVEALRQFQFKVGKENFALIHVSLVPVIHGEQKTKPTQAAIKGLRSLGLVPDMIACRCSETLDKPTIDKIAMFCHVGPEQVVNVHDVNSTYHVPLLLLEQKMIDYLHARLKLDEISLTEEEKQRGLELLSKWKATTGNFDESMETVKIALVGKYTNLKDSYLSVIKALEHSSMKCRRKLDIKWVEATDLEPEAQESNKTKFHEAWNMVSTADGILIPGGFGVRGTEGMVLAARWARENHIPFLGVCLGLQIATIEFTRSVLGRKDSHSAEFYPDIDEKNHVVVFMPEIDKETMGGSMRLGLRPTFFQNETEWSQIKKLYGDVSEVHERHRHRYEINPKMVDELENNGLIFVGKDDTGKRCEILELKNHPYYIATQYHPEYTSKVLDPSKPFLGLVAASAGILQDVIEGKYDLEAGENKFNF
B2: WT (protein, UniProt P15891 2-592, looked up)
Actin-binding protein: ALEPIDYTTHSREIDAEYLKIVRGSDPDTTWLIISPNAKKEYEPESTGSSFHDFLQLFDETKVQYGLARVSPPGSDVEKIIIIGWCPDSAPLKTRASFAANFAAVANNLFKGYHVQVTARDEDDLDENELLMKISNAAGARYSIQTSSKQQGKASTPPVKKSFTPSKSPAPVSKKEPVKTPSPAPAAKISSRVNDNNDDDDWNEPELKERDFDQAPLKPNQSSYKPIGKIDLQKVIAEEKAKEDPRLVQKPTAAGSKIDPSSDIANLKNESKLKRDSEFNSFLGTTKPPSMTESSLKNDDDKVIKGFRNEKSPAQLWAERKAKQNSGNAETKAEAPKPEVPEDEPEGEPDVKDLKSKFEGLAASEKEEEEMENKFAPPPKKSEPTIISPKPFSKPQEPVKAEEAEQPKTDYKKIGNPLPGMHIEADNEEEPEENDDDWDDDEDEAAQPPLPSRNVASGAPVQKEEPEQEEIAPSLPSRNSIPAPKQEEAPEQAPEEEIEEEAEEAAPQLPSRSSAAPPPPPRRATPEKKPKENPWATAEYDYDAAEDNELTFVENDKIINIEFVDDDWWLGELEKDGSKGLFPSNYVSLGN

What was measured:
Format in all cases: cell-based, Saccharomyces cerevisiae
[1] = system: BBC1; assay: DHFR-PCA on solid medium, bait BBC1 (Fig. 1B); conditions: bait BBC1, label = prey
Excerpt: Supplement 41467_2021_21873_MOESM8_ESM.xlsx, sheet "Fig1B" | column: medsize; medrep; Ratio; Score

[2] = system: Lsb3; assay: Deep mutational scanning of Abp1 SH3, Abp1-Lsb3 DHFR-PCA (DMS score); conditions: Abp1-Lsb3 DHFR-PCA; WT = 0; Fig. S3C-D
Procedure, shortened: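 Yeast, genomic ABP1 SH3 single-codon mutant pool (58 positions, NNN) × DHFR F[3] prey; diploid selection, then 2 cycles PCA selection medium, 72 h, 30 °C each. Readout: Illumina sequencing of SH3 locus vs. unselected diploid reference (S2). Biological duplicates.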

[3] = system: Abp1 (1xFLAG); assay: Western blot expression level of Abp1 SH3 mutants (Fig. S3C-D)
Procedure: Precultures of yeast cells expressing baits fused with the DHFR F[1,2]-FLAG were grown overnight at 30 °C with agitation in synthetic complete medium. The next day, cells were expanded in synthetic complete medium to reach their exponential phase (OD600 of around 1.0), pelleted, and frozen at −80 °C. The equivalent of fifty OD600 of cells was resuspended in ice-cold yeast lysis buffer (10 mM Tris-HCl pH 7.4, 150 mM NaCl, 0.5 mM EDTA (Millipore Sigma), 1% Triton X-100 (Millipore Sigma), and one cOmplete Mini Protease Inhibitor Cocktail (Millipore Sigma) per 10 mL) with […] glass beads (Millipore Sigma) and disrupted at 4 °C by 10 cycles of 2 min vortexing and 2 min cooldown. The equivalent of […] of lysed cells was used for the immunoprecipitation of the bait proteins using FLAG-M2 agarose beads (Millipore Sigma). The beads were incubated with the cell lysates for 120 min at 4 °C with a slow rotation, followed by three washes with the yeast lysis buffer.
Protein extracts and affinity-purified baits from yeast and human lysed cells were migrated on 10% polyacrylamide gels. The separated proteins were then transferred to nitrocellulose membranes. Validation of correct protein loading was done with ponceau staining of the membranes. Before the primary antibody incubations, membranes were blocked in 5% milk. Protein signals were detected on an Amersham Imager 600RGB (GE Healthcare) following the incubation of the membranes with the appropriate HRP-conjugated secondary antibodies and the Clarity Western ECL Substrate (Bio-Rad). The antibodies used in this study are M2-HRP (A8592, Sigma, 1/50,000), rabbit anti-FLAG (F7425, Sigma, 1/1000), PAK (SC-881, Santa Cruz, 1/200), p130cas/BCAR1 (SC-860, Santa Cruz, 1/200), actin (Cell Signaling Technology, 1/2000), anti-mouse HRP (Cell Signaling Technology, 1/10,000) and anti-rabbit HRP (Cell Signaling Technology, 1/10,000). The quantification of the WB signals was performed with the Amersham Imager 600 analysis software (GE Healthcare). […]
C, WB comparing expression levels of selected Abp1 SH3 mutants with WT Abp1. An asterisk represents a stop codon, which inhibits translation of the 1xFLAG epitope. D, Quantification of the relative level of expression of Abp1 SH3 mutants by WB as in C, (log2 of Abp1 SH3 mutant/Abp1 WT ratio, WB relative level of expression of 0 for WT Abp1) compared to their DMS scores (Hua2 (left): Pearson’s r = -0.34, p-value = 0.46, Lsb3 […]
(right): Pearson’s r = -0.81, p-value = 0.03). […]
Most […]
interface residues sensitive to mutations, such as Y7, E13, E16, V3 1, D32, D34, L48 and Y53, specifically affect Hua2 PPI. See also Supplementary Table 4.

Row | Molecule | medrep (log2 median colony size normalized to plate background, PCA score) ([1]; 2-4 replicates) | Ratio (SH3-deleted/WT medrep) ([1]; only significant differences showed, PPIs completely lost have a ratio of 0.1 and the gained PPIs 2.5) | DMS score Lsb3 [2] | Ratio Mutant/WT Flag ([3]; Western blot Flag signal of mutant relative to WT) | Flag (2 bands) ([3]; Western blot, Flag signal, 2 bands)
1 | B1 | 2.387 | 0.1 | – | – | –
2 | B2 | – | – | 0 | 1 | 36554

Reference: publication PMC7954794, “Protein context shapes the specificity of SH3 domain-mediated interactions in vivo” (Nature Communications, 2021)
